B1: Ha1-5.99: fully human gamma 2 anti-PSCA monoclonal antibody from XenoMouse; ATCC PTA-6703; sequences FIG. 2E-2F (antibody, V domains shown)
VH: QVHLQQWGAGLLKPSETLSLTCAVYGGSFSGYYWSWIRQPPGKGLEWIGEINHSGSTSYKPSLKSRVTVSVDTSKNQFSLKLSYVTAADTAVYYCARDRGDYGDFLFDYWGQGTLVTVSSASTKGPSVFPLAPSSKST
VL: SPGERATLSCRASQSIGSTYLAWYQQKPGQAPRLLIYGASSRATGIPERFSGSGSGTDFTLTISGLEPEDFAVFYCQQCGSSPPTFGQGTKVEIKRTVAAPSVFIFPPSDEQLKSGTASVVCLLNNFYPREAKVQWKVDNA
B2: Ha1-4.37: fully human gamma 1 anti-PSCA monoclonal antibody from XenoMouse; ATCC PTA-6702; sequences FIG. 2P-2Q (antibody, V domains shown)
VH: CPGALQESGPGLVRPSQTLSLTCTVSGGSISSGGTYYWIWIRQHPGKGLEWIGYIYYSGSTYYNPSLKSRVTISVDTSKNQFSLKLSSVTAADTAVYYCARDGITMVRGISGGMDVWGQGTTVTVSSASTKGPSVKGPSVF
VL: ASVGDRVTITCRASQSISSHLNWYQQKPGKAPKLLIYAASSLQSGVPSRFSGSGSGTDFTLSISSLQPEDFATYFCQQSYSIPRTFGQGTKVEITRTVAAPSVFIFPPSDEQLKSGTASVVCLLNNFYPREAKVQWKVDNALQSG

Columns and labels:
[1] = tested on: LAPC-9AI androgen-independent human prostate cancer xenografts; assay: Established subcutaneous LAPC-9AI prostate cancer xenograft; format: in vivo, SCID mice; conditions: treatment from tumor volume 50 mm3, i.p. twice weekly, 5 doses until day 14; p<0.05
Protocol: FIG. 19. PSCA MAb Ha1-5.99 Inhibits the Growth of Established Prostate Cancer Xenografts in SCID mice. LAPC-9AI tumor cells (2.0×10^6 cells) were injected subcutaneously into male SCID mice. When tumor volume reached 50 mm3, the mice were randomized into groups (n=10 in each group) and treatment initiated intraperitoneally (i.p.) with HA1-5.99.1 or isotype MAb control as indicated. Animals were treated twice weekly for a total of 5 doses until study day 14. Tumor growth was monitored using caliper measurements every 3 to 4 days as indicated.
In another experiment, LAPC-9AI tumor cells (2.0×10^6 cells) were injected subcutaneously into male SCID mice. When tumor volume reached 50 mm3, the mice were randomized into groups (n=10 in each group) and treatment initiated intraperitoneally (i.p.) with HA1-5.99.1 or isotype MAb control as indicated Animals were treated twice weekly for a total of 5 doses until study day 14. Tumor growth was monitored using caliper measurements every 3 to 4 days as indicated. […] (FIG. 19).

[2] = tested on: B300.19-PSCA expressing cells; assay: Complement mediated cytotoxicity; format: cell-based; conditions: 0-50 μg/ml antibody, rabbit complement serum, 2 hr 37° C., Alamar Blue
Protocol: (§1) FIG. 14. Complement mediated cytotoxicity of PSCA Mabs. PSCA antibodies (0-50 μg/ml) were diluted with RHB buffer (RPMI 1640, Gibco Life Technologies, 20 mM HEPES). B300.19-PSCA expressing cells were washed in RHB buffer and resuspended at a density of 10^6 cells/ml. In a typical assay, 50 μl of PSCA antibody, 50 μl of diluted rabbit complement serum (Cedarlane, Ontario, Can), and 50 μl of a cell suspension were added together into a flat-bottom tissue culture 96-well plate. The mixture was incubated for 2 hr. at 37° C. in a 5% CO2 incubator to facilitate complement-mediated cell lysis. […] The fluorescence in each well was read using a 96-well fluorometer with excitation at 530 nm and emission at 590 nm.
as §1, with “PSCA” for “FIG. 14. Complement mediated cytotoxicity of PSCA”, “antibodies were evaluated to determine their ability to mediate immune dependent cytotoxicity.” for “Mabs.”, “plate.” for “plate. The mixture was incubated for 2 hr. at 37° C. in a 5% CO2 incubator to facilitate complement-mediated cell lysis.”

[3] = tested on: SW780 human bladder tumors; assay: Subcutaneous SW780 bladder tumor xenograft; format: in vivo, ICR SCID mice; conditions: 250 mg/mouse i.p. two times a week, 7 doses, from day of injection; t test
Protocol: FIG. 27. Human PSCA MAbs Inhibit the Growth of SW780 Bladder Tumors in SCID Mice. Human SW780 bladder cancer cells (2×10^6/mouse) were injected subcutaneously into immunodeficient ICR SCID mice (Taconic Farm, Germantown, N.Y.). The mice were randomized into groups (n=10 animals/group) and treatment with the indicated human PSCA MAb initiated the same day. Antibodies (250 mg/mouse) were delivered intraperitoneally two times a week for a total of 7 doses. […] Statistical analyses were performed using at test (two-sided, α=0.05).
In another experiment, Human SW780 bladder cancer cells (2×10^6/mouse) were injected subcutaneously into immunodeficient ICR SCID mice (Taconic Farm, Germantown, N.Y.). The mice were randomized into groups (n=10 animals/group) and treatment with the indicated human PSCA MAb initiated the same day. Antibodies (250 mg/mouse) were delivered intraperitoneally two times a week for a total of 7 doses. […] Statistical analyses were performed using at test (two-sided, α=0.05) (FIG. 27).

[4] = molecular target: T1, cell surface PSCA on PSCA-expressing cells (endogenous or recombinant) (Homo sapiens, UniProt O43653); assay: PSCA human MAb screening by FACS; format: binding
T1 construct: host or cells: PSCA-expressing cells (endogenous or recombinant)
Protocol: FIGS. 9A and 9B. Screening for human PSCA antibodies by FACS. Antibody concentration from supernatants was determined by ELISA. 50 ul/well of (neat) was added to 96-well FACS plates and serially diluted. PSCA-expressing cells were added (endogenous or recombinant, 50,000 cells/well) and the mixture incubated at 4° C. for two hours. Following incubation, the cells were washed with FACS Buffer and further incubated with 100 ul of detection antibody (anti-hIgG-PE) for 45 minutes at 4° C. At the end of incubation, the cells were washed with FACS Buffer, fixed with formaldehyde and analyzed using FACScan. Data were analyzed using CellQuest Pro software. Solid histograms represent data from negative control cells and open histograms indicate data from PSCA-positive cells.
Primary hybridoma screening for MAbs to PSCA was performed by FACS. The protocol was as follows: 50 ul/well of hybridoma supernatant (neat) or purified antibodies (in serial dilutions) were added to 96-well FACS plates and mixed with PSCA-expressing cells (endogenous or recombinant, 50,000 cells/well). The mixture was incubated at 4° C. for two hours. At the end of incubation, the cells were washed with FACS Buffer and incubated with 100 ul of detection antibody (anti-hIgG-PE) for 45 minutes at 4° C. At the end of incubation, the cells were washed with FACS Buffer, fixed with Formaldehyde and analyzed using FACScan. Data were analyzed using CellQuest Pro software. Filled histograms indicate data from negative control cells, and open histograms represent data from PSCA-positive cells (FIG. 9).
Positive hybridomas identified from primary screens were transferred to 24-well plates and supernatants collected for confirmatory screens. Confirmatory screens included FACs analysis on B300.19-PSCA/300.19-neo, Rat1-PSCA/Rat1-neo, PC3-PSCA/neo, SW780 (bladder cancer cell line), LAPC9AI (prostate cancer cell line), HPAC (pancreatic cancer cell line), and ELISA assay using Tag5-PSCA, GST-PSCA, GST-PSCA N-term, Med. C-Term, and pET-PSCA.

Molecule | inhibition of growth of established subcutaneous tumors [1] | complement dependent lysis of target cells [2] | inhibition of subcutaneous tumor growth [3] | react and bind with cell surface or immobilized PSCA [4] | binding to endogenous cell surface PSCA ([4]; PSCA expressed in prostate cancer xenograft cells)
B1 | significantly inhibited the growth | able to mediate complement dependent lysis | significantly inhibited the growth | react and bind with cell surface or immobilized PSCA | bind endogenous cell surface PSCA
B2 |  |  | significantly inhibited the growth | react and bind with cell surface or immobilized PSCA | 
